Data taken from patent US20230272069A1 (INSTITUTE OF HEMATOLOGY AND BLOOD DISEASES HOSPITAL CHINESE …, published 2023).
Blank lines part the entries; values can stand above or below the binder they belong to.

Tests used:
CD19 antigen molecule = target: T1, CD19 antigen molecule (human, UniProt P15391 20-556); experiment: cell-based or functional assay
T1 sequence (looked up): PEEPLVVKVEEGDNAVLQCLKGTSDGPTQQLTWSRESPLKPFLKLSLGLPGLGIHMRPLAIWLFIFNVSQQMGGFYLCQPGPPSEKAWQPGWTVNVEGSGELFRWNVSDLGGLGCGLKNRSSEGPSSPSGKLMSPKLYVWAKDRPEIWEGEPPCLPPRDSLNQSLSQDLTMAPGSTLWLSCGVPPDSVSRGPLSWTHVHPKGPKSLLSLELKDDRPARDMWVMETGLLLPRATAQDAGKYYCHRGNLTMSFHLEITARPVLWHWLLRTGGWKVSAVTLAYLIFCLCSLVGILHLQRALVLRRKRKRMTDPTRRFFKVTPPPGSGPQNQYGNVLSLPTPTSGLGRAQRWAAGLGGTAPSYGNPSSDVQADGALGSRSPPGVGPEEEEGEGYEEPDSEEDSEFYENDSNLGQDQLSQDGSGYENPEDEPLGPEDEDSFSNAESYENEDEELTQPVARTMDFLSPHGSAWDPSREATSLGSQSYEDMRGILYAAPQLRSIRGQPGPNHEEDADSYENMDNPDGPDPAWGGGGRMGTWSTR

CD22 antigen molecule = target: T2, CD22 antigen molecule (human, UniProt P20273 20-847); experiment: cell-based or functional assay
T2 sequence (looked up): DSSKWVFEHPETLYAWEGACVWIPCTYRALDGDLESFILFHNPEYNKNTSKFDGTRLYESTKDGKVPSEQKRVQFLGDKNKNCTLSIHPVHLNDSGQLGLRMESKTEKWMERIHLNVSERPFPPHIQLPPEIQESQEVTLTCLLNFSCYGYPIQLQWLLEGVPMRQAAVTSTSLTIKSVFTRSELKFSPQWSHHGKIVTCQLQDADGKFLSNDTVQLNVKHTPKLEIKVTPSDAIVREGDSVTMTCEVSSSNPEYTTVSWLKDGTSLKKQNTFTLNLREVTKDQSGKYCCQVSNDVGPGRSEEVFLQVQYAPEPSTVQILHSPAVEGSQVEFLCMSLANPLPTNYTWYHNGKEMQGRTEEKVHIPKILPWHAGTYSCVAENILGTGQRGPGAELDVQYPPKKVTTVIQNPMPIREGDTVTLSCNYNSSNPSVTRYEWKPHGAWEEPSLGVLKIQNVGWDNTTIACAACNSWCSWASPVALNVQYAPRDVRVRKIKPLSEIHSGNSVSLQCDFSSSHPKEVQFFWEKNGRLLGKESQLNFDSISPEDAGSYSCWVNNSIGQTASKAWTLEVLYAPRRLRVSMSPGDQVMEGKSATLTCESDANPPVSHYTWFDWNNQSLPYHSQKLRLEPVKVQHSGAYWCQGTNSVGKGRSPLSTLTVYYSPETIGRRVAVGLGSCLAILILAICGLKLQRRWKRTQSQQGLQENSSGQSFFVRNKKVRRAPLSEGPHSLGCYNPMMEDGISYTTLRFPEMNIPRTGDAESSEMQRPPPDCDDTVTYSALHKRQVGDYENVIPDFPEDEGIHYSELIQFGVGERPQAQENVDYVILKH

degranulation level (CD107a on GFP+ cells) after co-culture with MV4-11-CD19 cells, E:T 1:1, 4 h (CD19 antigen molecule): ≥ 25%
degranulation level (CD107a on GFP+ cells) after co-culture with MV4-11-CD22 cells, E:T 1:1, 4 h (CD22 antigen molecule): ≥ 15%
B1: CD22 scFv-CD19 scFv-CD8α-4-1BB-CD3ζ CAR (other)
chain: DIELTQSPSSLAVSVGEKVTMSCKSSQSLLYSSNQKNYLAWYQQKPGQSPKLLIYWASTRESGVPDRFTGSGSGTDFTLTVSSVKAEDLAVYYCQQSYSYPFTFGSGTKLEIKRGGGGSGGGGSGGGGSQVKLQQSGPELVKPGASVKISCKASGYDFSISWMNWVRQRPGQGLEWIGRIYPGDGDSNYNGKFEGKATLTADKSSSTAYMQLSGLTSVDSAVYFCARTTTMIALYAMDYWGQGTTVTVSSEAAAKEAAAKEAAAKEAAAKEAAAKDIVLTQSPKFMSTSVGDRVSVTCKASQNVGTNVAWYQQKPGQSPKPLIYSATYRNSGVPDRFTGSGSGTDFTLTITNVQSKDLADYFCQQYNRYPYTSGGGTKLEIKRGGGGSGGGGSGGGGSQVQLQQSGAELVRPGSSVKISCKASGYAFSSYWMNWVKQRPGQGLEWIGQIYPGDGDTNYNGKFKGQATLTADKSSSTAYMQLSGLTSEDSAVYFCARKTISSVVDFYFDYWGQGTTLTVSSEFTTTPAPRPPTPAPTIASQPLSLRPEACRPAAGGAVHTRGLDFACDIYIWAPLAGTCGVLLLSLVITLYKRGRKKLLYIFKQPFMRPVQTTQEEDGCSCRFPEEEEGGCELRVKFSRSADAPAYQQGQNQLYNELNLGRREEYDVLDKRRGRDPEMGGKPRRKNPQEGLYNELQKDKMAEAYSEIGMKGERRRGKGHDGLYQGLSTATKDTYDALHMQALPPR

degranulation level (CD107a on GFP+ cells) after co-culture with MV4-11-CD19 cells, E:T 1:1, 4 h (CD19 antigen molecule): ≥ 25%
degranulation level (CD107a on GFP+ cells) after co-culture with MV4-11-CD22 cells, E:T 1:1, 4 h (CD22 antigen molecule): ≥ 15%
B2: CD19 VL-CD22 VL-CD22 VH-CD19 VH-CD8α-4-1BB-CD3ζ CAR (other)
chain: DIVLTQSPKFMSTSVGDRVSVTCKASQNVGTNVAWYQQKPGQSPKPLIYSATYRNSGVPDRFTGSGSGTDFTLTITNVQSKDLADYFCQQYNRYPYTSGGGTKLEIKRGGGGSDIELTQSPSSLAVSVGEKVTMSCKSSQSLLYSSNQKNYLAWYQQKPGQSPKLLIYWASTRESGVPDRFTGSGSGTDFTLTVSSVKAEDLAVYYCQQSYSYPFTFGSGTKLEIKRGSTSGSGKPGSGEGSTKGQVKLQQSGPELVKPGASVKISCKASGYDFSISWMNWVRQRPGQGLEWIGRIYPGDGDSNYNGKFEGKATLTADKSSSTAYMQLSGLTSVDSAVYFCARTTTMIALYAMDYWGQGTTVTVSSGGGGSQVQLQQSGAELVRPGSSVKISCKASGYAFSSYWMNWVKQRPGQGLEWIGQIYPGDGDTNYNGKFKGQATLTADKSSSTAYMQLSGLTSEDSAVYFCARKTISSVVDFYFDYWGQGTTLTVSSEFTTTPAPRPPTPAPTIASQPLSLRPEACRPAAGGAVHTRGLDFACDIYIWAPLAGTCGVLLLSLVITLYKRGRKKLLYIFKQPFMRPVQTTQEEDGCSCRFPEEEEGGCELRVKFSRSADAPAYQQGQNQLYNELNLGRREEYDVLDKRRGRDPEMGGKPRRKNPQEGLYNELQKDKMAEAYSEIGMKGERRRGKGHDGLYQGLSTATKDTYDALHMQALPPR
